Results as given in patent US20170073415A1 (NUMAB, published 2017).

B1: clone-02 (monoclonal rabbit anti-CD3ε antibody) (antibody, V domains shown)
VH: QSLEESGGRLVTPGTPLTLTCTVSGFPLSAYAMIWVRQAPGKGLEWIGMIIRSGTVYYANWAKGRFTISKTSTTVDLKITSPTTEDTATYFCARRHYNADGYPIGIGDLWGPGTLVTVSS
VL: AQVLTQTPSSVSAVVGGTVTISCQSSESVYSNNRLSWFQQKPGQPPKLLIYSASTLASGVPSRFKGSGSGTQFTLTITDLECDDAATYFCQGEFSCSSVDCFSFGGGTEVVVKG
B2: Construct 1, bispecific anti-CD3×IL5R single-chain diabody comprising the humanized variable domain of clone-06 (bispecific antibody, part only; not given: anti-IL5R domains and linkers, part only)
chain, part: DIQMTQSPSSLSASVGDRVTITCQSSESVYNNKRLSWYQQKPGKAPKLLIYTASSLASGVPSRFSGSGSGTDFTLTISSLQPEDFATYYCQGEFTCSNADCFTFGQGTKLTVLGEVQLVESGGGLVQPGGSLRLSCAASGFPLSSYAMIWVRQAPGKGLEWIGMILRAGNIYYASWVKGRFTISRDNSKNTVYLQMNSLRAEDTAVYYCARRHYNREGYPIGIGDLWGQGTLVTVSS
B3: clone-06 (monoclonal rabbit anti-CD3ε antibody) (antibody, V domains shown)
VH: QSVEESGGRLVTPGTPLTLTCTVSGFPLSSYAMIWVRQAPGKGLEWIGMILRAGNIYYASWVKGRVTISKTSTTVDLKITSPTTEDTATYFCARRHYNREGYPIGIGDLWGPGTLVTVSS
VL: AQVLTQTPSSVSAAVGGTVTISCQSSESVYNNKRLSWFQQKPGQPPKQLIYTASSLASGVPSRFKGSGSGTQFTLTISDLECDDAATYYCQGEFTCSNADCFTFGGGTEVVVKG
B4: clone-03 (monoclonal rabbit anti-CD3ε antibody) (antibody, V domains shown)
VH: QSLEESGGRLVTPGTPLTLTCTVSGFPLNRYAMLWVRQAPGKGLEWIGLITRADKKYYASWAKGRFTISKTSTTVDLEITGPTTEDTATYFCARRHYNTDGYPIAIGDLWGPGTLVTVSS
VL: AQVLTQTPSSVSAAVGGTVTISCQSNENIYSNNRLSWFQQKPGQPPNQLIYSASSLASGVPSRFKGSGSGTQFTLTISDLECDDAATYYCQGEFNCNSADCFTFGGGTEVVVKG
B5: clone-04 (monoclonal rabbit anti-CD3ε antibody) (antibody, V domains shown)
VH: QSLEESGGRLVKPDETLTLTCTVSGFPLSSYAMGWFRQAPGKGLEWIGMILRSDNTYYASWAKGRFTISKTSTTVDLKITSPTTEDTATYFCARRHYNASGNPIAIGDLWGPGTLVTVSS
VL: AQVLTQTPSSVSAAVGGTVTINCQSSQSVYNNNRLSWFQQKPGQPPKLLIYTTSSLASGVPSRFKGSGSGTEFTLTISDLECADAATYYCQGEFSCSRADCFNFGGGTEVVVKG
B6: bispecific anti-IL5R×CD3ε single-chain diabody containing Numab's humanized clone 6 anti-CD3 variable domain (Example 9) (bispecific antibody)
chain: DIQMTQSPSSLSASVGDRVTITCQASQNIYSNLAWYQQKPGKAPKLLIYRASTLASGVPSRFSGSGSGTDFTLTISSLQPEDFATYYCQSNYGINYYGAAFGQGTKLTVLGGGGGSEVQLVESGGGLVQPGGSLRLSCAASGFPLSSYAMIWVRQAPGKGLEWIGMILRAGNIYYASWVKGRFTISRDNSKNTVYLQMNSLRAEDTAVYYCARRHYNREGYPIGIGDLWGQGTLVTVSSGGGGSGGGGSGGGGSGGGGSDIQMTQSPSSLSASVGDRVTITCQSSESVYNNKRLSWYQQKPGKAPKLLIYTASSLASGVPSRFSGSGSGTDFTLTISSLQPEDFATYYCQGEFTCSNADCFTFGQGTKLTVLGGGGGSEVQLVESGGGLVQPGGSLRLSCAASGFSLSSYDMTWVRQAPGKGLEWIGIIYVSGSAYYASWAKGRFTISRDNSKNTVYLQMNSLRAEDTAVYYCARINYGLDLWGQGTLVTVSS
B7: clone-10 (monoclonal rabbit anti-CD3ε antibody) (antibody, V domains shown)
VH: QSLEESGGRLVTPGTPLTLTCTVSGFPLSSFAMLWVRQAPGKGLEWIGMIMRAHNMYYASWAKGRFTISKTSTTVDLEITSPTTEDTATYFCARRHYNTYGYPIAIGDLWGPGTLVTVSS
VL: AQVLTQTPSSVSAAVGGTATISCQSNENIYSNNRLSWFQQKAGQPPNQLIYSASSLASGVPSRFKGSGSGTQFTLTISDLECDDAATYYCQGEFSCSSADCFTFGGGTEVVVKG

Assays:
[1] = biological target: human CD3ε expressed on the cell surface of T cells (Jurkat clone E6-1; human CD8+ T cells) (human) (UniProt P07766); test: cell-based or functional assay
[2] = biological target: T1, human CD3ε expressed on the cell surface of T cells (Jurkat clone E6-1; human CD8+ T cells) (human, UniProt P07766 23-207); test: cell-based or functional assay
[3] = biological target: human heterodimeric single-chain CD3εγ extracellular domain (human) (UniProt P07766); test: SPR, human scCD3εγ ECD immobilised, scDb injected
[4] = biological target: human CD3ε expressed on the cell surface of T cells (Jurkat clone E6-1; human CD8+ T cells) (human) (UniProt P07766); test: cell-based or functional assay; remark: listed apart in the source
[5] = biological target: T1, human CD3ε expressed on the cell …; test: cell-based or functional assay; remark: listed apart in the source

Molecule	Fold increase in CD69 expression [MFI normalized to neg. ctrl.], 1.25 µg/ml anti-CD3 IgG, Jurkat cells, 24 h [2]	Fold increase in CD69 expression [MFI normalized to neg. ctrl.], 5 µg/ml anti-CD3 IgG, Jurkat cells, 24 h [2]	Fold increase in CD69 expression [MFI normalized to neg. ctrl.], 20 µg/ml anti-CD3 IgG, Jurkat cells, 24 h [2]	also measured
TR66 (Novus Biologicals, Cat. No. NBP1-97446) (antibody)	–	–	–	Fold increase in CD69 expression [MFI normalized to neg. ctrl.], 1.25 µg/ml anti-CD3 IgG, Jurkat cells, 24 h [1]: 1.6 fold; Fold increase in CD69 expression [MFI normalized to neg. ctrl.], 5 µg/ml anti-CD3 IgG, Jurkat cells, 24 h [1]: 2.2 fold; Fold increase in CD69 expression [MFI normalized to neg. ctrl.], 20 µg/ml anti-CD3 IgG, Jurkat cells, 24 h [1]: 3 fold
OKT3 (BioLegend, Cat. No. 317302) (antibody)	–	–	–	Fold increase in CD69 expression [MFI normalized to neg. ctrl.], 1.25 µg/ml anti-CD3 IgG, Jurkat cells, 24 h [1]: 1.8 fold; Fold increase in CD69 expression [MFI normalized to neg. ctrl.], 5 µg/ml anti-CD3 IgG, Jurkat cells, 24 h [1]: 2.5 fold; Fold increase in CD69 expression [MFI normalized to neg. ctrl.], 20 µg/ml anti-CD3 IgG, Jurkat cells, 24 h [1]: 3.1 fold
B1	3.3 fold	4.6 fold	7.4 fold	–
B2	–	–	–	Kd [3]: 11.5 nM; Potency to lyse target cells [EC50] (CHO-IL5R cells, CD8+ T cells, 88 h) [4]: 0.1 nM; Potency to stimulate IL-2 secretion by T cells [EC50] [4]: 0.96 nM
B3	2.7 fold	5.1 fold	5.3 fold	–
B4	2.6 fold	4.6 fold	6.6 fold	–
B5	2.6 fold	3.5 fold	7.8 fold	–
B6	–	–	–	EC50 of specific lysis of CHO-IL5R target cells by CD8+ T cells at 64 hours [5]: 0.31 nM
B7	2.6 fold	4.2 fold	6.2 fold	–
